B1: UGT2B15 promoter 20 bp WT (dsDNA)
DNA 1: TAACTTGATTGATTTTTCCT
DNA 2: AGGAAAAATCAATCAAGTTA
B2: UGT2B15 promoter 20 bp mutant (dsDNA)
DNA 1: TAACTTGGCTGTCTTTTCCT
DNA 2: AGGAAAAGACAGCCAAGTTA

Experiments:
OC2 DNA-binding domain [1] = molecular target: T1, OC2 DNA-binding domain (UniProt O95948 330-485); assay: SPR
T1 sequence: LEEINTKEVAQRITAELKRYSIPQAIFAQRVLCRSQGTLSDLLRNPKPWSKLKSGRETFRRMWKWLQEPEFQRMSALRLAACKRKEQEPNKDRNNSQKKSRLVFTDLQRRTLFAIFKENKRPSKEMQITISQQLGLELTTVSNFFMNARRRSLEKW

OC2 DNA-binding domain [2] = molecular target: T1, OC2 DNA-binding domain; assay: SPR; remark: listed apart in the source

Row | Binder | Kd (OC2 DNA-binding domain [1]) | binding result (OC2 DNA-binding domain [2])
1 | B1 | 1.13 ± 0.01 nM | –
2 | B2 | – | no binding
